B1: human anti-V2 monoclonal antibody 697 (antibody, V domains shown)
VH: QVQLVQSGAEVKKPGSSVKVSCKASGGNFNTYTISWVRQAPGQGLEWMGRIIPIFGIVNPAQKFPGRVTINVDKSTNTAYMELSSLRSEDTAVYYCATSGVGLHFGYFDYWGQGTQVTVSS
VL: QSVLTQPPSVSGAPGQRVTISCTGSSSNIGAHYDVHWYQQLPGTAPKLLIYGNSNRPSGVPDRFSGSKSGTSASLAITGLQAEDEADYYCQSYDSSLSGYVFGTGTKVTVL

What was measured:
[1] = molecular target: recombinant gp120 JR-FL (HIV-1); experiment: ELISA
[2] = molecular target: Env of pseudovirus 6535.3 (HIV-1)
[3] = molecular target: Env of pseudovirus BaL.26 (HIV-1)
[4] = molecular target: Env of pseudovirus Bx08.16 (HIV-1)
[5] = molecular target: Env of pseudovirus HXB2.DG (HIV-1) (UniProt P04578)
[6] = molecular target: Env of pseudovirus MW965.26 (HIV-1)
[7] = molecular target: Env of pseudovirus SF162.LS (HIV-1)
[8] = molecular target: Env of pseudovirus SS1196.1 (HIV-1)
[9] = molecular target: recombinant gp120 MSC5007 (HIV-1); experiment: ELISA
[10] = molecular target: Env of pseudovirus DJ263.8 (HIV-1)
[11] = molecular target: recombinant gp120 ZM53M (HIV-1); experiment: ELISA
[12] = molecular target: fusion protein V1V2_(Case-A2)-gp70 (HIV-1); experiment: ELISA
[13] = molecular target: recombinant gp120 REJO4541 (HIV-1); experiment: ELISA

Molecule | O.D. (ELISA, mAb at 10 μg/ml) [1] [O.D.] | IC50 of neutralisation of pseudovirus 6535.3 (TZM-bl cell assay) [2] [µg/mL] | IC50 of neutralisation of pseudovirus BaL.26 (TZM-bl cell assay) [3] [µg/mL] | IC50 of neutralisation of pseudovirus Bx08.16 (TZM-bl cell assay) [4] [µg/mL] | IC50 of neutralisation of pseudovirus HXB2.DG (TZM-bl cell assay) [5] [µg/mL] | IC50 of neutralisation of pseudovirus MW965.26 (TZM-bl cell assay) [6] [µg/mL] | IC50 of neutralisation of pseudovirus SF162.LS (TZM-bl cell assay) [7] [µg/mL] | IC50 of neutralisation of pseudovirus SS1196.1 (TZM-bl cell assay) [8] [µg/mL] | O.D. (ELISA, mAb at 10 μg/ml) [9] [O.D.] | IC50 of neutralisation of pseudovirus DJ263.8 (TZM-bl cell assay) [10] [µg/mL] | O.D. (ELISA, mAb at 10 μg/ml) [11] [O.D.] | percent inhibition of the binding of biotinylated 697 to V1V2-gp70 [12] [%] | O.D. (ELISA, mAb at 10 μg/ml) [13] [O.D.]
human anti-V2 monoclonal antibody 697 | 4 |  |  |  |  |  |  |  |  |  |  |  | 
human anti-V2 monoclonal antibody 830A |  | > 50 | 36.1 | > 50 | > 50 | < 0.4 | 6.2 | > 50 | 4 |  |  |  | 
human anti-V2 monoclonal antibody 1357 | 4 |  |  |  | 36.9 | 0.8 | 33.5 |  |  | 29.2 |  |  | 
human anti-V2 monoclonal antibody 1361 |  |  |  |  | 18.6 | < 0.4 | 5.4 | 23.8 |  | 11.8 | 4 |  | 
human anti-V2 monoclonal antibody 1393A | 4 |  |  |  | 19.8 | 0.8 | 12.5 | 88.7 |  | 11.1 |  |  | 
human anti-V2 monoclonal antibody 2158 |  |  |  |  | 17.8 | 0.8 | 6.4 | 27.6 |  |  |  |  | 
human anti-V2 monoclonal antibody 2297 |  |  |  |  |  |  |  |  |  |  |  | 47 | 4
B1 |  |  | 20.2 | 11.2 |  | 1.8 | 19.9 | 16.8 |  | 38.6 |  |  | 
